Test [1] concerns the target T1, Src of LLC-PK1 cells (endogenous) (pig, UniProt K7GM45 2-548).
T1 construct: Species from the cell line (pig kidney proximal LLC-PK1); also called Src from the LLC-PK1 cell lysates; Src in TCN23-19 and PY-17 cells (clones of LLC-PK1)
In words: GST pulldown from cell lysates, Western blot.

Test [2] addresses purified pig kidney Na+/K+-ATPase (PKE) (pig, UniProt P05024 6-1021; P05027 1-303). Description: in vitro binding assay with GST-tagged Src truncations and purified Na+/K+-ATPase.

B1: GST-SERCA-CD3 (other)
chain: GTRRMAKKNAIVRSLPSVETLGCTSVICSDKTGTLTTNQMSVCRMFILDKVEGDTCSLNEFTITGSTYAPIGEVQKDDKPVKCHQYDGLVELATICALCNDSALDYNEAKGVYEKVGEATETALTCLVEKMNVFDTELKGLSKIERANACNSVIKQLMKKEFTLEFSRDRKSMSVYCTPNKPSRTSMSKMFVKGAPEGVIDRCTHIRVGSTKVPMTPGVKQKIMSVIREWGSGSDTLRCLALATHDNPLRREEMHLEDSANFIKYETNLTFVGCVGMLDPPRIEVASSVKLCRQAGIRVIMITGDNKGTAVAICRRIGIFGQDEDVTSKAFTGREFDELSPSAQRDACLNARCFARVEPSHKSKIVEFLQSFDEITAMTGDGVNDAPALKKSEIGIAMGSGTAVAKTASEMVLADDNFSTIVAAVEEGRAIYNNMKQFIRYLISSNV
notes: also called GST-CD3 from rat heart sarcoplasmic reticulum Ca2+-ATPase 2a
Regarding B1, the binding result in test [1] is recorded as “no binding (tested: 1 mg LLC-PK1 cell lysates)”.

B2: GST-KD1 of Src (other)
chain: LRLEVKLGQGCFGEVWMGTWNGTTRVAIKTLKPGTMSPEAFLQEAQVMKKLRHE
notes: also called GST-tagged Src truncation; not shown: glutathione S-transferase (GST) fusion tag
For B2, the binding result in test [2] was “binds”.

Source of the values: patent publication US20130150294A1 (UNIVERSITY OF TOLEDO, published 2013).
